From publication PMC7374754, “Selection of mutant µplasmin for amyloid-β cleavage in vivo” (Scientific Reports, 2020)

Biological target: human µPlm P642A (human)
Experiment: cell-based or functional assay

B1: human alpha-2 antiplasmin (α2-AP), mature (natural protein, UniProt P08697-1 40-491, looked up)
chain: NQEQVSPLTLLKLGNQEPGGQTALKSPPGVCSRDPTPEQTHRLARAMMAFTADLFSLVAQTSTCPNLILSPLSVALALSHLALGAQNHTLQRLQQVLHAGSGPCLPHLLSRLCQDLGPGAFRLAARMYLQKGFPIKEDFLEQSEQLFGAKPVSLTGKQEDDLANINQWVKEATEGKIQEFLSGLPEDTVLLLLNAIHFQGFWRNKFDPSLTQRDSFHLDEQFTVPVEMMQARTYPLRWFLLEQPEIQVAHFPFKNNMSFVVLVPTHFEWNVSQVLANLSWDTLHPPLVWERPTKVRLPKLYLKHQMDLVATLSQLGLQELFQAPDLRGISEQSLVVSGVQHQSTLELSEVGVEAAAATSIAMSRMSLSSFSVNRPFLFFIFEDTTGLPLFVGSVRNPNPSAPRELKEQQDSPGNKDFLQSLKGFPRGDKLFGPDLKLVPPMEEDYPQFGSPK
IC50 of α2-AP inhibition of amidolytic activity, fold relative to the wild-type: 2 fold of wild type
